PMC10692737

Molecular target: Rabbit skeletal muscle actin (filaments with free barbed ends) (rabbit) (UniProt P68135)

Chain of C-terminal half of mouse CAP2, C-CAP2 (219–476)-6His (Q9CYT6 219-476): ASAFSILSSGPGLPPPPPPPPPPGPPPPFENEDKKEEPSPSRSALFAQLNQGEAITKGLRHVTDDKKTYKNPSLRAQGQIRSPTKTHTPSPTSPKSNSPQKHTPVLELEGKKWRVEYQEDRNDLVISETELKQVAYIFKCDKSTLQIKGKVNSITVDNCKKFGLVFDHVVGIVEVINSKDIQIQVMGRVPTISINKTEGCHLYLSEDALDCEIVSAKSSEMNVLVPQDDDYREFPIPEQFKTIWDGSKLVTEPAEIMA

C-terminal half of mouse CAP2, C-CAP2 (219–476)-6His (from UniProt Q9CYT6 219-476) (domain or fragment)
barbed end depolymerization rate in mf-TIRF, no actin monomers, 1 μM C-CAP2 (2.5- to 3-fold faster than control) (subunits s^−1): 10.8
